Assays:
[1] = target: Arabidopsis thaliana Fructosamine-3-kinase homolog (AtFN3K), wild type (Arabidopsis thaliana) (UniProt Q9LEW8); experiment: SEC
[2] = target: AtFN3K C32A/C236A/C196A triple cysteine mutant (Arabidopsis thaliana); experiment: SEC
[3] = target: AtFN3K C32A/C236A/C196A triple cysteine mutant (Arabidopsis thaliana); experiment: AUC
non-reducing SDS-PAGE = target: the molecule itself; experiment: non-reducing SDS-PAGE

## Arabidopsis thaliana Fructosamine-3-kinase homolog (AtFN3K), wild type (from UniProt Q9LEW8 31-326) (enzyme)
[1]
  stoichiometry N: 2

## AtFN3K C32A/C236A/C196A triple cysteine mutant (enzyme)
[2]
  stoichiometry N: 2
[3]
  stoichiometry N: 2

B1: Recombinant His-HsFN3K (human Fructosamine-3-kinase), wild type (enzyme, UniProt Q9H479 1-309, looked up)
chain: MEQLLRAELRTATLRAFGGPGAGCISEGRAYDTDAGPVFVKVNRRTQARQMFEGEVASLEALRSTGLVRVPRPMKVIDLPGGGAAFVMEHLKMKSLSSQASKLGEQMADLHLYNQKLREKLKEEENTVGRRGEGAEPQYVDKFGFHTVTCCGFIPQVNEWQDDWPTFFARHRLQAQLDLIEKDYADREARELWSRLQVKIPDLFCGLEIVPALLHGDLWSGNVAEDDVGPIIYDPASFYGHSEFELAIALMFGGFPRSFFTAYHRKIPKAPGFDQRLLLYQLFNYLNHWNHFGREYRSPSLGTMRRLLK
non-reducing SDS-PAGE
  binding result: binds

Source: article doi:10.1101/2020.01.13.904870 (bioRxiv, 2020)
